Laboratory results taken from US20100172907A1 (Hoffmann-La Roche, published 2010).
Groups on a side chain read outwards from the residue. No end group written: not given here. NSMP = not defined here

T1: BSA-conjugated Aβ heptapeptide AEFRHDC (C-terminal Cys coupled to NSMP-activated BSA)
T1 construct: also called Peptide 2-7
T1 peptide: AEFRHDC

T2: BSA-conjugated Aβ heptapeptide LVFFAEC (reading uncertain; also: BSA conjugate)
T2 construct: also called Peptide 17-22
T2 peptide: LVFFAEC([NSMP-BSA])

T3: BSA-conjugated Aβ heptapeptide VFFAEDC (C-terminal Cys coupled to NSMP-activated BSA)
T3 construct: also called Peptide 18-23
T3 peptide: VFFAEDC

T4: BSA-conjugated Aβ heptapeptide FFAEDVC (C-terminal Cys coupled to NSMP-activated BSA)
T4 construct: also called Peptide 19-24
T4 peptide: FFAEDVC


Legend:
[1] = target: T1, BSA-conjugated Aβ heptapeptide AEFRHDC; assay: ELISA
Protocol: (§1) 50 μl of NSMP activated BSA (6.7 mg/ml) was diluted with 50 μl of PBS, 0.1% sodium azide and 10 μl of peptide solution (1 mM in DMSO) was added. As negative control activated BSA was mock-treated without peptide addition. After 4 hrs at room temperature the reaction was stopped by addition of 10 μl of 10 mM Cystein. An aliquot of the conjugate reaction mixture was diluted 1:100 with 0.1M sodium bicarbonate buffer and immediately filled into the wells (100 μl) of ELISA plates (Nunc Immuno-Plate). After standing 16 hrs at 4° C. 100 μl blocking buffer (as above) was added to each well and incubated for another 30 minutes. The plates were washed with 2×300 μl/well TBST (as above) and filled with 100 μl antibody at 10 μg/ml or 2 μg/ml in blocking buffer. The plates were kept 16 hours at 4° C. and washed with 2×300 μl TBST. 100 μl/well HRP-conjugated anti-human Ig H+L (Pierce, dilution 1:1000 with blocking buffer) was added and incubated for 1 hour at ambient temperature. The plates were washed with 3×300 μl/well TBST. Colour development was started by addition of 100 μl tetra-methyl benzidine/hydrogen peroxide reagent.

[2] = target: T2, BSA-conjugated Aβ heptapeptide LVFFAEC; assay: ELISA
Protocol: as §1

[3] = target: T3, BSA-conjugated Aβ heptapeptide VFFAEDC; assay: ELISA
Protocol: as §1

[4] = target: T4, BSA-conjugated Aβ heptapeptide FFAEDVC; assay: ELISA
Protocol: as §1

human Aβ (1-40) peptide = target: T5, human Aβ (1-40) peptide (human); assay: SPR, immobilized fibers;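 also: biacore SPR using in vitro grown Aβ1-40 or Aβ1-42 fibrils immobilized on the chip with Fab analytes, KD from koff/kon fits or equilibrium isotherms based on total Fab concentration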
T5 construct: also called Aβ1-40 fibers

Aβ (1-42) peptide = target: T6, Aβ (1-42) peptide (human); assay: SPR, immobilized fibers;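 also: biacore SPR using in vitro grown Aβ1-40 or Aβ1-42 fibrils immobilized on the chip with Fab analytes, KD from koff/kon fits or equilibrium isotherms based on total Fab concentration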
T6 construct: also called Aβ1-42 fibers; Aβ4
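For OD ratio 17-22/BSA in this document: ELISA of antibody at 10 or 2 µg/ml binding plate-coated BSA–peptide conjugates, detected with HRP anti-human Ig and TMB colour, mock-treated BSA without peptide as negative control.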
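For OD ratio 18-23/BSA in this document: ELISA of antibody at 10 or 2 µg/ml binding plate-coated BSA–peptide conjugates, detected with HRP anti-human Ig and TMB colour, mock-treated BSA without peptide as negative control.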
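For OD ratio 2-7/BSA in this document: ELISA of antibody at 10 or 2 µg/ml binding plate-coated BSA–peptide conjugates, detected with HRP anti-human Ig and TMB colour, mock-treated BSA without peptide as negative control.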
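For Peptide-ratio 17-22/2-7 in this document: ELISA of antibody at 10 or 2 µg/ml binding plate-coated BSA–peptide conjugates, detected with HRP anti-human Ig and TMB colour, mock-treated BSA without peptide as negative control.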

OD ratio 2-7/BSA [1]	OD ratio 17-22/BSA [2]	Peptide-ratio 17-22/2-7 [2]	OD ratio 18-23/BSA [3]	Peptide-ratio 18-23/2-7 [3]	OD ratio 19-24/BSA [4]	Peptide-ratio 19-24/2-7 [4]	Kd (human Aβ (1-40) peptide) [nM]	Kd (Aβ (1-42) peptide) [nM]	Binder
37	11	0.3	15	0.41	9	0.24	22	74	MS-Roche #7.11 Fab (Fab, V domains shown) VH: not shown VL: DIVLTQSPATLSLSPGERATLSCRASQSVSSSYLAWYQQKPGQAPRLLIYGASSRATGVPARFSGSGSGTDFTLTISSLEPEDFATYYCQQVYSPPHTFGQGTKVEIKR
30	13	0.43	18	0.6	15	0.5	8	10.1	MS-Roche #7.2.H5 Fab (Fab, V domains shown) VH: QVQLVESGGGLVQPGGSLRLSCAASGFTFSSYAMSWVRQAPGKGLEWVSAINATGRSKYYADSVKGRFTISRDNSKNTLYLQMNSLRAEDTAVYYCARGKGNTHKPYGYVRYFDVWGQGTLVTVSS VL: DIVLTQSPATLSLSPGERATLSCRASQSVSSSYLAWYQQKPGQAPRLLIYGASSRATGVPARFSGSGSGTDFTLTISSLEPEDFATYYCQQIYSFPHTFGQGTKVEIKR
35	11	0.31	20	0.57	9	0.27	4.2	2.8	MS-Roche #7.9.H3 Fab (Fab, V domains shown, assembled) VH: QVQLVESGGGLVQPGGSLRLSCAASGFTFSSYAMSWVRQAPGKGLEWVSAINYQGNRKYYADSVKGRFTISRDNSKNTLYLQMNSLRAEDTAVYYCARGKGNTHKPYGYVRYFDVWGQGTLVTVSS VL: DIVLTQSPATLSLSPGERATLSCRASQSVSSSYLAWYQQKPGQAPRLLIYGASSRATGVPARFSGSGSGTDFTLTISSLEPEDFATYYCLQIYNMPITFGQGTKVEIKR
35	3	0.08	6	0.16	8	0.23	5	5.7	MS-Roche #7.9.H2 Fab (Fab, V domains shown, assembled) VH: QVQLVESGGGLVQPGGSLRLSCAASGFTFSSYAMSWVRQAPGKGLEWVSAINADGNRKYYADSVKGRFTISRDNSKNTLYLQMNSLRAEDTAVYYCARGKGNTHKPYGYVRYFDVWGQGTLVTVSS VL: DIVLTQSPATLSLSPGERATLSCRASQSVSSSYLAWYQQKPGQAPRLLIYGASSRATGVPARFSGSGSGTDFTLTISSLEPEDFATYYCLQIYNMPITFGQGTKVEIKR
33	17	0.52	20	0.61	18	0.55	45.4	5.3	MS-Roche #7.2.H3 Fab (Fab, V domains shown) VH: QVQLVESGGGLVQPGGSLRLSCAASGFTFSSYAMSWVRQAPGKGLEWVSAINANGYKTYYADSVKGRFTISRDNSKNTLYLQMNSLRAEDTAVYYCARGKGNTHKPYGYVRYFDVWGQGTLVTVSS VL: DIVLTQSPATLSLSPGERATLSCRASQSVSSSYLAWYQQKPGQAPRLLIYGASSRATGVPARFSGSGSGTDFTLTISSLEPEDFATYYCQQIYSFPHTFGQGTKVEIKR
23	12	0.52	13	0.57	12	0.52	5.9	5	MS-Roche #7.2.H4 Fab (Fab, V domains shown) VH: QVQLVESGGGLVQPGGSLRLSCAASGFTFSSYAMSWVRQAPGKGLEWVSAINSKGSRIYYADSVKGRFTISRDNSKNTLYLQMNSLRAEDTAVYYCARGKGNTHKPYGYVRYFDVWGQGTLVTVSS VL: DIVLTQSPATLSLSPGERATLSCRASQSVSSSYLAWYQQKPGQAPRLLIYGASSRATGVPARFSGSGSGTDFTLTISSLEPEDFATYYCQQIYSFPHTFGQGTKVEIKR

Second part, the binder before the results:

Binder	OD ratio 2-7/BSA [1]	OD ratio 17-22/BSA [2]	Peptide-ratio 17-22/2-7 [2]	OD ratio 18-23/BSA [3]	Peptide-ratio 18-23/2-7 [3]	OD ratio 19-24/BSA [4]	Peptide-ratio 19-24/2-7 [4]	Kd (human Aβ (1-40) peptide) [nM]	Kd (Aβ (1-42) peptide) [nM]
MS-Roche #7.2.H2 Fab (Fab, V domains shown) VH: QVQLVESGGGLVQPGGSLRLSCAASGFTFSSYAMSWVRQAPGKGLEWVSAINGTGMKKYYADSVKGRFTISRDNSKNTLYLQMNSLRAEDTAVYYCARGKGNTHKPYGYVRYFDVWGQGTLVTVSS VL: DIVLTQSPATLSLSPGERATLSCRASQSVSSSYLAWYQQKPGQAPRLLIYGASSRATGVPARFSGSGSGTDFTLTISSLEPEDFATYYCQQIYSFPHTFGQGTKVEIKR	16	10	0.63	10	0.63	10	0.63	8.2	8.2
MS-Roche #7.4.H2 Fab (Fab, V domains shown) VH: QVQLVESGGGLVQPGGSLRLSCAASGFTFSSYAMSWVRQAPGKGLEWVSAINYNGARIYYADSVKGRFTISRDNSKNTLYLQMNSLRAEDTAVYYCARGKGNTHKPYGYVRYFDVWGQGTLVTVSS VL: not shown	36	17	0.47	20	0.56	16	0.46	9.9	6.2
MS-Roche #7.9.H4 Fab (Fab, V domains shown, assembled) VH: QVQLVESGGGLVQPGGSLRLSCAASGFTFSSYAMSWVRQAPGKGLEWVSAINAVGMKKFYADSVKGRFTISRDNSKNTLYLQMNSLRAEDTAVYYCARGKGNTHKPYGYVRYFDVWGQGTLVTVSS VL: DIVLTQSPATLSLSPGERATLSCRASQSVSSSYLAWYQQKPGQAPRLLIYGASSRATGVPARFSGSGSGTDFTLTISSLEPEDFATYYCLQIYNMPITFGQGTKVEIKR	30	10	0.32	15	0.49	7	0.22	4.8	4.2
MS-Roche #7.2.L1 Fab (Fab, V domains shown) VH: not shown VL: DIVLTQSPATLSLSPGERATLSCRASQYVDRTYLAWYQQKPGQAPRLLIYGASSRATGVPARFSGSGSGTDFTLTISSLEPEDFATYYCQQIYSFPHTFGQGTKVEIKR	24	14	0.57	16	0.68	11	0.45	13.3	12.7
MS-Roche #7.11.H1 Fab (Fab, V domains shown) VH: QVQLVESGGGLVQPGGSLRLSCAASGFTFSSYAMSWVRQAPGKGLEWVSGINAAGFRTYYADSVKGRFTISRDNSKNTLYLQMNSLRAEDTAVYYCARGKGNTHKPYGYVRYFDVWGQGTLVTVSS VL: DIVLTQSPATLSLSPGERATLSCRASQSVSSSYLAWYQQKPGQAPRLLIYGASSRATGVPARFSGSGSGTDFTLTISSLEPEDFATYYCQQVYSPPHTFGQGTKVEIKR	31	8	0.25	9	0.29	8	0.25	12.7	6.7
